Read-outs that look alike come from different tables or passages of the source.
Experiments:
Assay in all cases: ELISA
Spike S1-His = Spike S1-His (SARS-CoV-2, UniProt P0DTC2 14-685)
Spike S2 [1] = molecular target: T1, Spike S2 (SARS-CoV-2, UniProt P0DTC2 686-1213)
Spike S2 [2] = molecular target: T1, Spike S2; remark: listed apart in the source
Nucleocapsid-His = Nucleocapsid-His (SARS-CoV-2, UniProt P0DTC9 1-419)

Binder	binding result (Spike S1-His)	binding result (Spike S2 [1])	binding result (Spike S2 [2])	binding result (Nucleocapsid-His)
N-Ap (structured_DNA) DNA: GCTGGATGTCACCGGATTGTCGGACATCGGATTGTCTGAGTCATATGACACATCCAGC	no binding	no binding		
RBD-Ap-1 (structured_DNA) DNA: CAGCACCGACCTTGTGCTTTGGGAGTGCTGGTCCAAGGGCGTTAATGGACA			no binding	
CGCAGCACCCAAGAACAAGGACTGCTTAGGATTGCGATAGGTTCGG (structured_DNA) [RBD-Ap-2]			no binding	no binding

From paper PMC9238363
